This is an account of results in article PMC5777261 (The Journal of Biological Chemistry, 2017).

What all share (experiment): radioligand binding; HEK293 cells expressing ACKR3-YFP or mutants, pretreated 5 min at 37 °C with 100 μM phenylarsine oxide; 50 pM 125I-CXCL12 tracer in 50 mM HEPES pH 7.4, 5 mM MgCl2, 1 mM CaCl2, 0.2% BSA, with or without unlabeled CXCL12 or CXCL11, 30 min at 37 °C; bound label counted in a γ counter; IC50 taken as proxy for ligand affinity
Conditions in all cases: one partner purified

Assay [1] has as its target T1, ACKR3 R142A-YFP (UniProt P25106 1-362, R142A).
T1 construct: ACKR3 (CXCR7) with R142A (Ballesteros-Weinstein 3.50), made by PCR in ACKR3-YFP; also called R142^3.50A; ACKR3 R142^3.50A; source: HEK293, transiently transfected (polyethyleneimine), on or in cells; not shown: YFP, C-terminal, kept

Assay [2] concerns the target T2, ACKR3-YFP (wildtype ACKR3 fused C-terminally to YFP) (UniProt P25106 1-362).
T2 construct: atypical chemokine receptor 3 (ACKR3, also known as CXCR7); also called CXCR7; receptor-YFP fusion; source: HEK293, transiently transfected (polyethyleneimine), on or in cells; not shown: YFP, C-terminal, kept

Assay [3] deals with T3, ACKR3 D90N-YFP (UniProt P25106 1-362, D90N).
T3 construct: ACKR3 (CXCR7) with D90N (Ballesteros-Weinstein 2.50), made by PCR in ACKR3-YFP; also called D90^2.50N; source: HEK293, transiently transfected (polyethyleneimine), on or in cells; not shown: YFP, C-terminal, kept
T3 sequence (P25106 whole entry D90N): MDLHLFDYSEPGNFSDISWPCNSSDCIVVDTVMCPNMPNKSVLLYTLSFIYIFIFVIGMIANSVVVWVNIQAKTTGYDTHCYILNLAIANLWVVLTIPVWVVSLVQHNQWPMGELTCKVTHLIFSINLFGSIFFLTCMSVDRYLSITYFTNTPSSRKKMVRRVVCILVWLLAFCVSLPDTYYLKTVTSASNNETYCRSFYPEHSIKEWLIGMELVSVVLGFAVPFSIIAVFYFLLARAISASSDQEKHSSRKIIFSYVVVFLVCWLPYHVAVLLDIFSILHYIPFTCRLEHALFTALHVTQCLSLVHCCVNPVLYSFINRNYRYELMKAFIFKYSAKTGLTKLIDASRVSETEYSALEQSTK

Assay [4] has as its target T4, ACKR3 D141N-YFP (UniProt P25106 1-362, D141N).
T4 construct: ACKR3 (CXCR7) with D141N (Ballesteros-Weinstein 3.49), made by PCR in ACKR3-YFP; also called D141^3.49N; source: HEK293, transiently transfected (polyethyleneimine), on or in cells; not shown: YFP, C-terminal, kept

Assay [5] concerns the target T5, ACKR3 N127D-YFP (UniProt P25106 1-362, N127D).
T5 construct: ACKR3 (CXCR7) with N127D (Ballesteros-Weinstein 3.35), made by PCR in ACKR3-YFP; also called N127^3.35D; source: HEK293, transiently transfected (polyethyleneimine), on or in cells; not shown: YFP, C-terminal, kept

Assay [6] has as its target T6, ACKR3 N127S-YFP (UniProt P25106 1-362, N127S).
T6 construct: ACKR3 (CXCR7) with N127S (Ballesteros-Weinstein 3.35), made by PCR in ACKR3-YFP; also called N127^3.35S; source: HEK293, transiently transfected (polyethyleneimine), on or in cells; not shown: YFP, C-terminal, kept

Assay [7] concerns the target T7, ACKR3 Y315A-YFP (UniProt P25106 1-362, Y315A).
T7 construct: ACKR3 (CXCR7) with Y315A (Ballesteros-Weinstein 7.53), made by PCR in ACKR3-YFP; also called Y315^7.53A; source: HEK293, transiently transfected (polyethyleneimine), on or in cells; not shown: YFP, C-terminal, kept

Assay [8] concerns the target T8, ACKR3 Y143A-YFP (UniProt P25106 1-362, Y143A).
T8 construct: ACKR3 (CXCR7) with Y143A (Ballesteros-Weinstein 3.51), made by PCR in ACKR3-YFP; also called Y143^3.51A; source: HEK293, transiently transfected (polyethyleneimine), on or in cells; not shown: YFP, C-terminal, kept

Assay [9] concerns the target T9, ACKR3 N127K-YFP (UniProt P25106 1-362, N127K).
T9 construct: ACKR3 (CXCR7) with N127K (Ballesteros-Weinstein 3.35), made by PCR in ACKR3-YFP; also called N127^3.35K; source: HEK293, transiently transfected (polyethyleneimine), on or in cells; not shown: YFP, C-terminal, kept

T2 sequence (P25106 whole entry, the tested form may be a part): as the sequence (P25106 whole entry D90N) above, with N90D counted along it
T1 sequence (P25106 whole entry R142A): as the sequence (P25106 whole entry D90N) above, with N90D, R142A counted along it
T5 sequence (P25106 whole entry N127D): as the sequence (P25106 whole entry D90N) above, with N90D, N127D counted along it
T9 sequence (P25106 whole entry N127K): as the sequence (P25106 whole entry D90N) above, with N90D, N127K counted along it
T4 sequence (P25106 whole entry D141N): as the sequence (P25106 whole entry D90N) above, with N90D, D141N counted along it
T7 sequence (P25106 whole entry Y315A): as the sequence (P25106 whole entry D90N) above, with N90D, Y315A counted along it
T8 sequence (P25106 whole entry Y143A): as the sequence (P25106 whole entry D90N) above, with N90D, Y143A counted along it
T6 sequence (P25106 whole entry N127S): as the sequence (P25106 whole entry D90N) above, with N90D, N127S counted along it

B1: CXCL11 (unlabeled recombinant chemokine) (ligand, human, UniProt O14625 22-94, looked up)
chain: FPMFKRGRCLCIGPGVKAVKVADIEKASIMYPSNNCDKIEVIITLKENKGQRCLNPKSKQARLIIKKVERKNF
notes: chemokine CXCL11 (I-TAC); called human CXCL11 in the text on scavenging by MEFs; also called I-TAC; unlabeled CXCL11; source: recombinant; gift from Amanda Nevins and Brian Volkman or from PeproTech Inc
B1: the IC50 (commonly the concentration that gives 50% inhibition) in [1] is 44.8 nM; in [2], 39.1 nM; in assay [3], 35.9 nM; in assay [4] it was 4.8 nM; in assay [5] it was 6.6 nM; in assay [6], 3.7 nM. In addition, the half-inhibitory concentration (IC50) was 19.1 nM in assay [7], 15.4 nM in assay [8] and 11 nM in assay [9]. In addition, the “Log IC50” value in assay [1] was -7.4; in assay [2], -7.4; in [3], -7.5; in [4], -8.3; in assay [5], -8; in assay [6], -8.5. In addition, the “Log IC50” value in assay [7] was -7.7; in [8], -7.8; in assay [9], -7.9.
